The values that follow come from the supplement of paper PMC9112550, “Optimization of the antimicrobial peptide Bac7 by deep mutational scanning” (BMC Biology, 2022).

The subject of the data set is Escherichia coli TOP10. Put plainly: shrunken log2 fold change of peptide-encoding DNA abundance (4.5 h post-induction vs induction); higher = less antimicrobial activity (less host growth inhibition). As to conditions: time post-induction: 4.5 h; library: site-saturation at positions 5, 18, 19, 20.
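Also: peptides expressed intracellularly from a pBAD plasmid library in pooled LB shake-flask culture, induced with 0.3% L-arabinose, DNA abundance read by NGS, three biological replicates, DESeq2 with apeglm shrinkage.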

Turning to RRIRHRPPRLPRPRPRPYNKPRP, the “shrunken log2 fold change” value is -0.681.
As to RRIRDRPPRLPRPRPRPVNGPRP, the “shrunken log2 fold change” value is -0.0115.
Then RRIRKRPPRLPRPRPRPEEEPRP, with 0.0391; and RRIRNRPPRLPRPRPRPIEKPRP, with -0.0498; and RRIRERPPRLPRPRPRPMHEPRP, with -0.401.
Then RRIRERPPRLPRPRPRPYGEPRP, with -0.0274; and RRIRYRPPRLPRPRPRPNIGPRP, with -0.105.
Turning to RRIRRRPPRLPRPRPRPYKCPRP, the “shrunken log2 fold change” value was -0.639.
With RRIRTRPPRLPRPRPRPGQNPRP the figure was 0.138; with RRIRKRPPRLPRPRPRPIKDPRP, -0.00059; with RRIRLRPPRLPRPRPRPHYYPRP, -0.438.
With RRIRTRPPRLPRPRPRPNFFPRP the figure was 0.0096; with RRIRGRPPRLPRPRPRPFGHPRP, -0.164.
For RRIRYRPPRLPRPRPRPHIVPRP, the “shrunken log2 fold change” value was -0.102.
Then RRIRERPPRLPRPRPRPAGYPRP, with 0.0991; and RRIRRRPPRLPRPRPRPIKWPRP, with 0.0148; and RRIRQRPPRLPRPRPRPNREPRP, with -0.0709.
As for RRIRERPPRLPRPRPRPTMAPRP, the “shrunken log2 fold change” value was 0.00526.
On to RRIRSRPPRLPRPRPRPQGTPRP, for which the “shrunken log2 fold change” value stood at 0.0846.
As to RRIRIRPPRLPRPRPRPFFGPRP, the “shrunken log2 fold change” value is -0.00653.
Then RRIRYRPPRLPRPRPRPIEYPRP, with -0.0912; and RRIRGRPPRLPRPRPRPRTFPRP, with 1.1; and RRIRFRPPRLPRPRPRPTESPRP, with -0.154.
With RRIRVRPPRLPRPRPRPQIVPRP the figure was -0.136.
Regarding RRIRTRPPRLPRPRPRPGNYPRP, the “shrunken log2 fold change” value is 0.0108.
With RRIRGRPPRLPRPRPRPDLRPRP the figure was 0.0067; with RRIRMRPPRLPRPRPRPEAHPRP, 3.52.
Then RRIRCRPPRLPRPRPRPYDMPRP, with -0.726.
Then RRIRYRPPRLPRPRPRPYATPRP, with -0.175; and RRIRLRPPRLPRPRPRPGNRPRP, with -1.09.
For RRIRYRPPRLPRPRPRPSMTPRP, the “shrunken log2 fold change” value is -0.817.
As for RRIRGRPPRLPRPRPRPDTHPRP, the “shrunken log2 fold change” value was -0.156.
With RRIRERPPRLPRPRPRPSPNPRP the figure was -0.328; with RRIRKRPPRLPRPRPRPQTSPRP, -0.122.
With RRIRFRPPRLPRPRPRPMYTPRP the figure was -0.00812; with RRIRMRPPRLPRPRPRPWKPPRP, -0.0836.
Then RRIRHRPPRLPRPRPRPTWHPRP, with -0.073; and RRIRNRPPRLPRPRPRPIDCPRP, with -0.248; and RRIRKRPPRLPRPRPRPLGYPRP, with 0.202.
On to RRIRYRPPRLPRPRPRPANLPRP, for which the “shrunken log2 fold change” value is -1.19.
With RRIRKRPPRLPRPRPRPWVVPRP the figure was 0.423.
With RRIRERPPRLPRPRPRPRSMPRP, the “shrunken log2 fold change” value is -0.212.
With RRIRLRPPRLPRPRPRPWQFPRP the figure was -0.196.
RRIRCRPPRLPRPRPRPRCDPRP: the “shrunken log2 fold change” value was -0.047.
On to RRIRRRPPRLPRPRPRPDIGPRP, for which the “shrunken log2 fold change” value was -0.0303.
With RRIRERPPRLPRPRPRPISDPRP the figure was 0.00346; with RRIRPRPPRLPRPRPRPPHEPRP, -0.0736; with RRIRFRPPRLPRPRPRPDRFPRP, 0.042.
With RRIRHRPPRLPRPRPRPMAKPRP the figure was -0.124; with RRIRGRPPRLPRPRPRPWKQPRP, 0.152; with RRIRARPPRLPRPRPRPYTVPRP, -0.306.
With RRIRVRPPRLPRPRPRPKVWPRP the figure was 0.409; with RRIRNRPPRLPRPRPRPRALPRP, 0.117; with RRIRNRPPRLPRPRPRPAPCPRP, 0.0656.
Take RRIRQRPPRLPRPRPRPYDQPRP: the “shrunken log2 fold change” value came to 0.0352.
With RRIRMRPPRLPRPRPRPSYPPRP the figure was -0.412.
With RRIRERPPRLPRPRPRPNEPPRP the figure was -0.129; with RRIRWRPPRLPRPRPRPKPDPRP, 0.115; with RRIRSRPPRLPRPRPRPDFEPRP, -0.0501.
Then RRIRDRPPRLPRPRPRPYIIPRP, with -0.758; and RRIRIRPPRLPRPRPRPNTIPRP, with -0.355.
Turning to RRIRIRPPRLPRPRPRPKNAPRP, the “shrunken log2 fold change” value was -0.107.
Then RRIRGRPPRLPRPRPRPSKNPRP, with 0.619; and RRIRPRPPRLPRPRPRPTQGPRP, with 0.753.
RRIRPRPPRLPRPRPRPGNKPRP: the “shrunken log2 fold change” value is -0.0476.
In the case of RRIRFRPPRLPRPRPRPRFHPRP, the “shrunken log2 fold change” value is -0.409.
With RRIRGRPPRLPRPRPRPGVHPRP the figure was 0.597; with RRIRRRPPRLPRPRPRPYCTPRP, -0.24.
With RRIRNRPPRLPRPRPRPLDPPRP the figure was -0.117.
As to RRIRERPPRLPRPRPRPGTHPRP, the “shrunken log2 fold change” value is -0.394.
Then RRIRQRPPRLPRPRPRPNIPPRP, with -0.262; and RRIRKRPPRLPRPRPRPDLNPRP, with 0.332.
On to RRIRQRPPRLPRPRPRPGFTPRP, for which the “shrunken log2 fold change” value was -0.11.
Then RRIRFRPPRLPRPRPRPMVFPRP, with -0.0469; and RRIRTRPPRLPRPRPRPIEHPRP, with 0.0859; and RRIRCRPPRLPRPRPRPNACPRP, with -0.0874.
As for RRIRWRPPRLPRPRPRPEDQPRP, the “shrunken log2 fold change” value was 0.475.
With RRIRARPPRLPRPRPRPCNHPRP the figure was -0.177; with RRIRCRPPRLPRPRPRPCCIPRP, -0.166.
Then RRIRFRPPRLPRPRPRPHCSPRP, with 0.0308; and RRIRSRPPRLPRPRPRPTKSPRP, with 0.0789; and RRIRHRPPRLPRPRPRPKLAPRP, with -0.0576.
With RRIRVRPPRLPRPRPRPTLEPRP the figure was 0.413.
Regarding RRIRWRPPRLPRPRPRPTFPPRP, the “shrunken log2 fold change” value was 0.197.
With RRIRQRPPRLPRPRPRPFQDPRP the figure was -0.195.
With RRIRTRPPRLPRPRPRPKRSPRP the figure was 0.207; with RRIRHRPPRLPRPRPRPQPTPRP, -0.18.
For the sequence RRIRERPPRLPRPRPRPYLLPRP, the “shrunken log2 fold change” value is -0.165.
Then RRIRMRPPRLPRPRPRPSSPPRP, with 0.16.
For the sequence RRIRDRPPRLPRPRPRPCNLPRP, the “shrunken log2 fold change” value is -0.0295.
Then RRIRGRPPRLPRPRPRPNVVPRP, with 0.0631; and RRIRARPPRLPRPRPRPTSHPRP, with -0.016; and RRIRIRPPRLPRPRPRPQKLPRP, with -0.277.
Consider RRIRKRPPRLPRPRPRPIVNPRP, for which the “shrunken log2 fold change” value was 0.219.
With RRIRQRPPRLPRPRPRPLIQPRP the figure was -0.228; with RRIRPRPPRLPRPRPRPGMVPRP, 0.268.
As to RRIRERPPRLPRPRPRPSQVPRP, the “shrunken log2 fold change” value was -0.0606.
Then RRIRNRPPRLPRPRPRPNVMPRP, with -0.16.
With RRIRSRPPRLPRPRPRPDWIPRP the figure was -0.337; with RRIRWRPPRLPRPRPRPKTDPRP, 0.204; with RRIRHRPPRLPRPRPRPGEQPRP, 0.0974.
With RRIRQRPPRLPRPRPRPSSHPRP the figure was 0.0105; with RRIRARPPRLPRPRPRPCQSPRP, -0.0122; with RRIRGRPPRLPRPRPRPVACPRP, 0.72.
Consider RRIRPRPPRLPRPRPRPPWGPRP, for which the “shrunken log2 fold change” value worked out at 0.34.
With RRIRNRPPRLPRPRPRPCYQPRP the figure was -0.32; with RRIRDRPPRLPRPRPRPYYDPRP, -0.621.
Turning to RRIRIRPPRLPRPRPRPVRDPRP, the “shrunken log2 fold change” value worked out at 0.158.
Then RRIRQRPPRLPRPRPRPECKPRP, with -0.0182.
With RRIRDRPPRLPRPRPRPFNKPRP the figure was -1.45; with RRIRDRPPRLPRPRPRPVFEPRP, 0.187; with RRIRQRPPRLPRPRPRPWMFPRP, -0.374.
Then RRIRPRPPRLPRPRPRPADHPRP, with -0.015; and RRIRIRPPRLPRPRPRPNNNPRP, with -0.982.
Consider RRIRERPPRLPRPRPRPMPSPRP, for which the “shrunken log2 fold change” value is 0.156.
RRIRGRPPRLPRPRPRPYNSPRP: the “shrunken log2 fold change” value was -0.359.
Then RRIRVRPPRLPRPRPRPVLVPRP, with -0.311.
With RRIRTRPPRLPRPRPRPACTPRP the figure was 0.212; with RRIRVRPPRLPRPRPRPINMPRP, -0.602.
Then RRIRTRPPRLPRPRPRPTKDPRP, with -0.244; and RRIRRRPPRLPRPRPRPVAWPRP, with 0.341; and RRIRYRPPRLPRPRPRPVKNPRP, with -0.381.
As for RRIRGRPPRLPRPRPRPRHRPRP, the “shrunken log2 fold change” value amounted to 0.401.
Then RRIRTRPPRLPRPRPRPAQDPRP, with 0.111.
Turning to RRIRLRPPRLPRPRPRPLCKPRP, the “shrunken log2 fold change” value was -0.398.
